Test results as given in patent US5989875A, “Method of process for producing L-lysine by fermentation” (priority 1995, dated 1999).

System: DDPS
Assay: Enzyme activity of DDPS and inhibition by L-lysine (cell-free extract)
Format: biochemical, E. coli
Conditions: for Inhibition of DDPS by L-lysine: various concentrations of L-lysine added, FIG. 2
Experimental: Mutant pdapA2's were recovered from the 36 strains described above. A dapA-deficient strain, JE7627 was transformed with them and the wild type pdapA2, respectively. A cell-free extract was prepared from each of the transformed strains, and the enzyme activity of DDPS was measured.
The cell-free extract (crude enzyme solution) was prepared as follows. A transformed strain was cultivated in a 2 x TY medium (1.6% Bacto trypton, 1% Yeast extract, 0.5% NaCl), and collected at an optical density at 660 nm (OD660) of about 0.8. A cell pellet was washed with 0.85% NaCl under a condition of 0° C., and suspended in 20 mM potassium phosphate buffer (pH 7.5) containing 400 mM KCl. The cells were disrupted by sonication (0° C., 200 W, 10 minutes). A disrupted cell solution was centrifuged at 33 krpm for 1 hour under a condition of 0° C. to obtain a supernatant to which ammonium sulfate was added to give 80% saturation to be stored at 0° C. overnight followed by centrifugation. A pellet was dissolved in 20 mM potassium phosphate buffer (pH 7.5)-400 mM KCl.
The enzyme activity of DDPS was measured in accordance with a method of Yugari et al. (Yugari, Y. and Gilvarg, C., J. Biol. Chem., 240, 4710 ([…])). Namely, the absorbance of a reaction solution having the following composition was measured at 37° C. with a spectrophotometer at a wavelength of 270 nm in a time-course manner, and generated dihydrodipicolinate was measured. Sodium pyruvate was removed from the reaction system to be used as a blank.
In measurement of the enzyme activity of DDPS, various concentrations of L-lysine were added to the enzyme reaction solutionand the degree of inhibition by L-lysine was examined.

Molecule	Inhibition of DDPS by L-lysine	Specific activity of DDPS as compared with the wild type (cell-free extract of JE7627 transformants)
wild type DDPS: wild type dihydrodipicolinate synthase of E. coli, SEQ ID NO:4 (protein) MFTGSIVAIVTPMDEKGNVCRASLKKLIDYHVASGTSAIVSVGTTGESATLNHDEHADVVMMTLDLADGRIPVIAGTGANATAEAISLTQRFNDSGIVGCLTVTPYYNRPSQEGLYQHFKAIAEHTDLPQILYNVPSRTGCDLLPETVGRLAKVKNIIGIKEATGNLTRVNQIKELVSDDFVLLSGDDASALDFMQLGGHGVISVTTNVAARDMAQMCKLAAEEHFAEARVINQRLMPLHNKLFVEPNPIPVKWACKELGLVATDTLRLPMTPITDSGRETVRAALKHAGLL	suffered inhibition by L-lysine	–
pdapAS24 (protein) MFTGSIVAIVTPMDEKGNVCRASLKKLIDYHVASGTSAIVSVGTTGESATLNHDEHADVVMMTLDLADGRIPVIAGTGANATAEAISLTQRFNDSGIVGCLTVTPYYNRPSQEGLYQYFKAIAEHTDLPQILYNVPSRTGCDLLPETVGRLAKVKNIIGIKEATGNLTRVNQIKELVSDDFVLLSGDDASALDFMQLGGHGVISVTTNVAARDMAQMCKLAAEEHFAEARVINQRLMPLHNKLFVEPNPIPVKWACKELGLVATDTLRLPMTPITDSGRETVRAALKHAGLL	desensitized	lowered a little
